Here are results for 1 molecule from patent publication US20220289850 (published 2022).

The target of the assay is T1, human integrin avb5 (human, UniProt P06756).
T1 chain 1: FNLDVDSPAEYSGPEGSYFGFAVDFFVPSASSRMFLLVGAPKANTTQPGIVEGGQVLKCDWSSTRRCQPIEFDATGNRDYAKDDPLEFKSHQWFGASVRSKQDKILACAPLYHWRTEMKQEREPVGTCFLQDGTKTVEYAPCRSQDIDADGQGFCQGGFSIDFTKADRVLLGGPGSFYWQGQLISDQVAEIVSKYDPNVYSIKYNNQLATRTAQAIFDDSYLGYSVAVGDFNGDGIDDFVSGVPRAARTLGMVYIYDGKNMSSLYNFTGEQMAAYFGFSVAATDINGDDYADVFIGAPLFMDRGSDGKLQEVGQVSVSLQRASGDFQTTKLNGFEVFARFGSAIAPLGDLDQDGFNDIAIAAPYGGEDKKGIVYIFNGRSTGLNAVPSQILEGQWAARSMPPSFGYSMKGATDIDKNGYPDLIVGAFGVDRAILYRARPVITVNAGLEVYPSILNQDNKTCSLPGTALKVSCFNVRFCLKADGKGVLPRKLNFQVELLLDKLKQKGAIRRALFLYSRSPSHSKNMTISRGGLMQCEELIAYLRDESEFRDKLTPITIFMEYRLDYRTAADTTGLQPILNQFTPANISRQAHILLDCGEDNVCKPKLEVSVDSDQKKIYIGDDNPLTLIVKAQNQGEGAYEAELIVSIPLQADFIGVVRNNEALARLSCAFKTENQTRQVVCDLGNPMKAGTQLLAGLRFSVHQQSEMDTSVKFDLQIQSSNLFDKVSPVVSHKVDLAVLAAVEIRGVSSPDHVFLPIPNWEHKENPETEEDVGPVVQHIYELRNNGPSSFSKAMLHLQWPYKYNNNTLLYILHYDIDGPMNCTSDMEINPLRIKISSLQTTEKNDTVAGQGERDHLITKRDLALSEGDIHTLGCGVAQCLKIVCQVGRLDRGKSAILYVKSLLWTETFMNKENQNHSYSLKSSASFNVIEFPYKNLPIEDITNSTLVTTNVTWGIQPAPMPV
T1 chain 2: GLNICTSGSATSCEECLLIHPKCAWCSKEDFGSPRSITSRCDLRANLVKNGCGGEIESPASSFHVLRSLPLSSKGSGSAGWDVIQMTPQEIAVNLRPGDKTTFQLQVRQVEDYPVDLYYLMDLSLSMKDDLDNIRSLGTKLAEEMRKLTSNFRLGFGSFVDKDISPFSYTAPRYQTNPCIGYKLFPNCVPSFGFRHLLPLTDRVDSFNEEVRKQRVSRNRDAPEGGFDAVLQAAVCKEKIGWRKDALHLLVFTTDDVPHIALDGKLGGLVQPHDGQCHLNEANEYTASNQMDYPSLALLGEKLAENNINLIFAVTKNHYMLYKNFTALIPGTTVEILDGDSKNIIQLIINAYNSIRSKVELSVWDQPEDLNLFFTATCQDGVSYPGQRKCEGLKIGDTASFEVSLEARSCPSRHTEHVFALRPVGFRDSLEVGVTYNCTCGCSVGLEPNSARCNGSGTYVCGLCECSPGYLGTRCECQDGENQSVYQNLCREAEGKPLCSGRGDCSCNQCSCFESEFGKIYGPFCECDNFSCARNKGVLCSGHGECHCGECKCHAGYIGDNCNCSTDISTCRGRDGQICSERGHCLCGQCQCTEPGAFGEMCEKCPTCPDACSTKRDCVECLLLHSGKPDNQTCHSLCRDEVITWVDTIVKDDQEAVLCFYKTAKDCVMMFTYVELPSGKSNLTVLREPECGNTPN
The assay is described as follows: FACS HEK cells.

B1: ADWA11 2.4 IgG (antibody)
chain 1: EVQLVESGGGLVQPGGSLRLSCAASGFNIKDYYMNWVRQAPGKGLEWVGWIDPDQGNTIYEPKFQGRFTISADTSKNSAYLQMNSLRAEDTAVYYCARRLLMDYWGQGTLVTVSSASTKGPSVFPLAPSSKSTSGGTAALGCLVKDYFPEPVTVSWNSGALTSGVHTFPAVLQSSGLYSLSSVVTVPSSSLGTQTYICNVNHKPSNTKVDKKVEPKSCDKTHTCPPCPAPEAAGAPSVFLFPPKPKDTLMISRTPEVTCVVVDVSHEDPEVKFNWYVDGVEVHNAKTKPREEQYNSTYRVVSVLTVLHQDWLNGKEYKCKVSNKALPAPIEKTISKAKGQPREPQVYTLPPSREEMTKNQVSLTCLVKGFYPSDIAVEWESNGQPENNYKTTPPVLDSDGSFFLYSKLTVDKSRWQQGNVFSCSVMHEALHNHYTQKSLSLSPGK
chain 2: DIQMTQSPSSLSASVGDRVTITCRSTKSLSHFNGNTYLFWYQQKPGKAPKRLIYYMSSLASGVPSRFSGSGSGTDFTLTISSLQPEDFATYYCQQSLEYPFTFGGGTKVEIKRTVAAPSVFIFPPSDEQLKSGTASVVCLLNNFYPREAKVQWKVDNALQSGNSQESVTEQDSKDSTYSLSSTLTLSKADYEKHKVYACEVTHQGLSSPVTKSFNRGEC
On to B1, for which the binding result is “no binding”.
